Measured values: patent publication US7008781

Biological target: Tie-2 receptor in EAhy926 cells (UniProt Q02763)
Test: cell-based or functional assay
Conditions: scale: fold molar excess of Ang1*

UniProt Q02763, sequence (Q02763 23-1124 limits assumed): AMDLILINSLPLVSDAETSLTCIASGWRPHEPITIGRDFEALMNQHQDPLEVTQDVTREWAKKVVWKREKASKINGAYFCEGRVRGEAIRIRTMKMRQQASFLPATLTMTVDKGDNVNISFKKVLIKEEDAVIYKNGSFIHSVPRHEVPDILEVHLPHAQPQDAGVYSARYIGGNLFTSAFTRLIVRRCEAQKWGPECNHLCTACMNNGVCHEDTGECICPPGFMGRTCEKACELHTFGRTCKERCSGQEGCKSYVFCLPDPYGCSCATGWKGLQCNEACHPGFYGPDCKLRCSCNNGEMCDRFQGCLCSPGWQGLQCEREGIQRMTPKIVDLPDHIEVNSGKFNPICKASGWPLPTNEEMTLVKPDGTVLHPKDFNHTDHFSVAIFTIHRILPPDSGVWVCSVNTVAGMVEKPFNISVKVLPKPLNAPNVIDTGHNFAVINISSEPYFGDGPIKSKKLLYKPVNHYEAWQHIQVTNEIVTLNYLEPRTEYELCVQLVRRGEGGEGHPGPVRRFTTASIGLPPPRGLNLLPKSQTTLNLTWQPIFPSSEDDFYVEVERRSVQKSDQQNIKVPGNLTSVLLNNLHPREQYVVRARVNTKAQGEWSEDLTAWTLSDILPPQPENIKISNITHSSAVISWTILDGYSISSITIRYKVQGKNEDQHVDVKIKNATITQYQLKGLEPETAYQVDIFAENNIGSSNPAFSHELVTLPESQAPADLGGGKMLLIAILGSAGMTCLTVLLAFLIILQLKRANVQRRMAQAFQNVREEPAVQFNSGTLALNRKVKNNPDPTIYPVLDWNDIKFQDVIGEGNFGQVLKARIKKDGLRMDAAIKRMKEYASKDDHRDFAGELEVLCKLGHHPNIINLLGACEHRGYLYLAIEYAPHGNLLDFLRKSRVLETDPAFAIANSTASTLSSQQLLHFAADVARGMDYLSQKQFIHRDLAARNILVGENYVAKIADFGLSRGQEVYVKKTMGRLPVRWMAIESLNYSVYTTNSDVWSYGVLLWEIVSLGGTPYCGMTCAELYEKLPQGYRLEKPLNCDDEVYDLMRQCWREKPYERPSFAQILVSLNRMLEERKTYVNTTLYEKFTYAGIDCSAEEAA

- block of Ang1*-mediated Tie-2 receptor phosphorylation in EAhy926 cells: > 20
Substance: angiopoietin-2 (from UniProt O15123 19-496) (ligand)
